The assay addresses cyclin-dependent kinase 1 (CDK1) (Xenopus laevis (endogenous in oocyte CSF extract)).

One substance from article PMC12072117 can be followed below.

“glutathione S-transferase-tagged cell division cycle 6 (GST-CDC6) (natural protein)” had a histone H1 kinase activity of CDC6-depleted CSF extract with 10 to 20 nM GST-CDC6 added (about 40% less with 10 nM, 45% less with 20 nM) of 45 % less.
